Measured values from patent US20220298218A1 (ANTAG THERAPEUTICS, published 2022).
Read-outs that look alike come from different tables or passages of the source. Where no end group is shown, it is not given here. The star is where a group is joined. C16 diacid = O=C(O)CCCCCCCCCCCCCCC(=O)*

What was measured:
human GIP receptor [1] = biological target: T1, human GIP receptor (human, UniProt P48546 22-466); experiment: cell-based or functional assay
T1 sequence (looked up): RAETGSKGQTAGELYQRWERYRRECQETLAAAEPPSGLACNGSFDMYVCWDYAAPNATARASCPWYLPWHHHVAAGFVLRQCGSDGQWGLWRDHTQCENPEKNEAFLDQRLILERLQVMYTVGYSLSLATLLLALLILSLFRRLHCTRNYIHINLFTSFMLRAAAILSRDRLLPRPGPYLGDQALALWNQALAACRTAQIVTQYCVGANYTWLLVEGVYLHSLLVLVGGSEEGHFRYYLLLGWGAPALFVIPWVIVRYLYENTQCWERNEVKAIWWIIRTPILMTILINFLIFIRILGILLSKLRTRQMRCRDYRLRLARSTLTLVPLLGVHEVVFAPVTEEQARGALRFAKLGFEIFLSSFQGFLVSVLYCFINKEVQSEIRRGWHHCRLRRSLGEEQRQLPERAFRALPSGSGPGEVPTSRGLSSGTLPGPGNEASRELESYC

human GIP receptor [2] = biological target: T1, human GIP receptor; experiment: cell-based or functional assay; remark: listed apart in the source

B1: AT448 (peptide)
peptide: EGTFISDYSIAMDKIK(C16 diacid)QQDFVNWLLAQKGK-OH
modifications: N-terminus assumed
SMILES: CC[C@H](C)[C@H](NC(=O)[C@H](CO)NC(=O)[C@H](Cc1ccc(O)cc1)NC(=O)[C@H](CC(=O)O)NC(=O)[C@H](CO)NC(=O)[C@@H](NC(=O)[C@H](Cc1ccccc1)NC(=O)[C@@H](NC(=O)CNC(=O)[C@@H](N)CCC(=O)O)[C@@H](C)O)[C@@H](C)CC)C(=O)N[C@@H](C)C(=O)N[C@@H](CCSC)C(=O)N[C@@H](CC(=O)O)C(=O)N[C@@H](CCCCN)C(=O)N[C@H](C(=O)N[C@@H](CCCCNC(=O)CCCCCCCCCCCCCCC(=O)O)C(=O)N[C@@H](CCC(N)=O)C(=O)N[C@@H](CCC(N)=O)C(=O)N[C@@H](CC(=O)O)C(=O)N[C@@H](Cc1ccccc1)C(=O)N[C@H](C(=O)N[C@@H](CC(N)=O)C(=O)N[C@@H](Cc1c[nH]c2ccccc12)C(=O)N[C@@H](CC(C)C)C(=O)N[C@@H](CC(C)C)C(=O)N[C@@H](C)C(=O)N[C@@H](CCC(N)=O)C(=O)N[C@@H](CCCCN)C(=O)NCC(=O)N[C@@H](CCCCN)C(=O)O)C(C)C)[C@@H](C)CC
Human GIP receptor [1]
  cAMP agonism Emax: 6.2
  cAMP antagonism: 6 nM
  cAMP antagonism % inhib: 77%
  cAMP antagonism log: -8.2 log M
Human GIP receptor [2]
  cAMP agonism % Emax: 0%
  cAMP antagonism: 1.36 nM
  cAMP antagonism % inhib: 96%
  cAMP antagonism pIC50: 8.9

B2: AT450 (peptide)
peptide: EGTFISDYSIAMDKIK(C16 diacid)QQDFVNWLLAQKGKKND-OH
modifications: N-terminus assumed
SMILES: CC[C@H](C)[C@H](NC(=O)[C@H](CO)NC(=O)[C@H](Cc1ccc(O)cc1)NC(=O)[C@H](CC(=O)O)NC(=O)[C@H](CO)NC(=O)[C@@H](NC(=O)[C@H](Cc1ccccc1)NC(=O)[C@@H](NC(=O)CNC(=O)[C@@H](N)CCC(=O)O)[C@@H](C)O)[C@@H](C)CC)C(=O)N[C@@H](C)C(=O)N[C@@H](CCSC)C(=O)N[C@@H](CC(=O)O)C(=O)N[C@@H](CCCCN)C(=O)N[C@H](C(=O)N[C@@H](CCCCNC(=O)CCCCCCCCCCCCCCC(=O)O)C(=O)N[C@@H](CCC(N)=O)C(=O)N[C@@H](CCC(N)=O)C(=O)N[C@@H](CC(=O)O)C(=O)N[C@@H](Cc1ccccc1)C(=O)N[C@H](C(=O)N[C@@H](CC(N)=O)C(=O)N[C@@H](Cc1c[nH]c2ccccc12)C(=O)N[C@@H](CC(C)C)C(=O)N[C@@H](CC(C)C)C(=O)N[C@@H](C)C(=O)N[C@@H](CCC(N)=O)C(=O)N[C@@H](CCCCN)C(=O)NCC(=O)N[C@@H](CCCCN)C(=O)N[C@@H](CCCCN)C(=O)N[C@@H](CC(N)=O)C(=O)N[C@@H](CC(=O)O)C(=O)O)C(C)C)[C@@H](C)CC
Human GIP receptor [1]
  cAMP agonism Emax: 5.8
  cAMP antagonism: 3 nM
  cAMP antagonism % inhib: 57%
  cAMP antagonism log: -8.5 log M
Human GIP receptor [2]
  cAMP agonism % Emax: 0%
  cAMP antagonism: 2.29 nM
  cAMP antagonism % inhib: 97%
  cAMP antagonism pIC50: 8.6

B3: AT449 (peptide)
peptide: EGTFISDYSIAMDKIK(C16 diacid)QQDFVNWLLAQKGKKN-OH
modifications: N-terminus assumed
SMILES: CC[C@H](C)[C@H](NC(=O)[C@H](CO)NC(=O)[C@H](Cc1ccc(O)cc1)NC(=O)[C@H](CC(=O)O)NC(=O)[C@H](CO)NC(=O)[C@@H](NC(=O)[C@H](Cc1ccccc1)NC(=O)[C@@H](NC(=O)CNC(=O)[C@@H](N)CCC(=O)O)[C@@H](C)O)[C@@H](C)CC)C(=O)N[C@@H](C)C(=O)N[C@@H](CCSC)C(=O)N[C@@H](CC(=O)O)C(=O)N[C@@H](CCCCN)C(=O)N[C@H](C(=O)N[C@@H](CCCCNC(=O)CCCCCCCCCCCCCCC(=O)O)C(=O)N[C@@H](CCC(N)=O)C(=O)N[C@@H](CCC(N)=O)C(=O)N[C@@H](CC(=O)O)C(=O)N[C@@H](Cc1ccccc1)C(=O)N[C@H](C(=O)N[C@@H](CC(N)=O)C(=O)N[C@@H](Cc1c[nH]c2ccccc12)C(=O)N[C@@H](CC(C)C)C(=O)N[C@@H](CC(C)C)C(=O)N[C@@H](C)C(=O)N[C@@H](CCC(N)=O)C(=O)N[C@@H](CCCCN)C(=O)NCC(=O)N[C@@H](CCCCN)C(=O)N[C@@H](CCCCN)C(=O)N[C@@H](CC(N)=O)C(=O)O)C(C)C)[C@@H](C)CC
Human GIP receptor [1]
  cAMP agonism Emax: 8.6
  cAMP antagonism: 4 nM
  cAMP antagonism % inhib: 95%
  cAMP antagonism log: -8.4 log M
Human GIP receptor [2]
  cAMP agonism % Emax: 0%
  cAMP antagonism: 5.84 nM
  cAMP antagonism % inhib: 89%
  cAMP antagonism pIC50: 8.2

B4: AT361 (peptide)
peptide: EGTFISDYSIAMDKIK(C16 diacid)QQDFVNWLLAQKGKKNDW-OH
modifications: N-terminus assumed
SMILES: CC[C@H](C)[C@H](NC(=O)[C@H](CO)NC(=O)[C@H](Cc1ccc(O)cc1)NC(=O)[C@H](CC(=O)O)NC(=O)[C@H](CO)NC(=O)[C@@H](NC(=O)[C@H](Cc1ccccc1)NC(=O)[C@@H](NC(=O)CNC(=O)[C@@H](N)CCC(=O)O)[C@@H](C)O)[C@@H](C)CC)C(=O)N[C@@H](C)C(=O)N[C@@H](CCSC)C(=O)N[C@@H](CC(=O)O)C(=O)N[C@@H](CCCCN)C(=O)N[C@H](C(=O)N[C@@H](CCCCNC(=O)CCCCCCCCCCCCCCC(=O)O)C(=O)N[C@@H](CCC(N)=O)C(=O)N[C@@H](CCC(N)=O)C(=O)N[C@@H](CC(=O)O)C(=O)N[C@@H](Cc1ccccc1)C(=O)N[C@H](C(=O)N[C@@H](CC(N)=O)C(=O)N[C@@H](Cc1c[nH]c2ccccc12)C(=O)N[C@@H](CC(C)C)C(=O)N[C@@H](CC(C)C)C(=O)N[C@@H](C)C(=O)N[C@@H](CCC(N)=O)C(=O)N[C@@H](CCCCN)C(=O)NCC(=O)N[C@@H](CCCCN)C(=O)N[C@@H](CCCCN)C(=O)N[C@@H](CC(N)=O)C(=O)N[C@@H](CC(=O)O)C(=O)N[C@@H](Cc1c[nH]c2ccccc12)C(=O)O)C(C)C)[C@@H](C)CC
Human GIP receptor [1]
  cAMP agonism Emax: 5
  cAMP antagonism: 2 nM
  cAMP antagonism % inhib: 100%
  cAMP antagonism log: -8.8 log M
Human GIP receptor [2]
  cAMP agonism % Emax: 0%
  cAMP antagonism: 3.76 nM
  cAMP antagonism % inhib: 99%
  cAMP antagonism pIC50: 8.4

B5: AT360 (peptide)
peptide: EGTFISDYSIAMDKIK(C16 diacid)QQDFVNWLLAQKGKK-OH
modifications: N-terminus assumed
SMILES: CC[C@H](C)[C@H](NC(=O)[C@H](CO)NC(=O)[C@H](Cc1ccc(O)cc1)NC(=O)[C@H](CC(=O)O)NC(=O)[C@H](CO)NC(=O)[C@@H](NC(=O)[C@H](Cc1ccccc1)NC(=O)[C@@H](NC(=O)CNC(=O)[C@@H](N)CCC(=O)O)[C@@H](C)O)[C@@H](C)CC)C(=O)N[C@@H](C)C(=O)N[C@@H](CCSC)C(=O)N[C@@H](CC(=O)O)C(=O)N[C@@H](CCCCN)C(=O)N[C@H](C(=O)N[C@@H](CCCCNC(=O)CCCCCCCCCCCCCCC(=O)O)C(=O)N[C@@H](CCC(N)=O)C(=O)N[C@@H](CCC(N)=O)C(=O)N[C@@H](CC(=O)O)C(=O)N[C@@H](Cc1ccccc1)C(=O)N[C@H](C(=O)N[C@@H](CC(N)=O)C(=O)N[C@@H](Cc1c[nH]c2ccccc12)C(=O)N[C@@H](CC(C)C)C(=O)N[C@@H](CC(C)C)C(=O)N[C@@H](C)C(=O)N[C@@H](CCC(N)=O)C(=O)N[C@@H](CCCCN)C(=O)NCC(=O)N[C@@H](CCCCN)C(=O)N[C@@H](CCCCN)C(=O)O)C(C)C)[C@@H](C)CC
Human GIP receptor [1]
  cAMP agonism Emax: 20
  cAMP antagonism: 86 nM
  cAMP antagonism % inhib: 85%
  cAMP antagonism log: -7.1 log M
Human GIP receptor [2]
  cAMP agonism % Emax: 0%
  cAMP antagonism: 12.6 nM
  cAMP antagonism % inhib: 96%
  cAMP antagonism pIC50: 7.9

B6: AT447 (peptide)
peptide: EGTFISDYSIAMDKIK(C16 diacid)QQDFVNWLLAQKG-OH
modifications: N-terminus assumed
SMILES: CC[C@H](C)[C@H](NC(=O)[C@H](CO)NC(=O)[C@H](Cc1ccc(O)cc1)NC(=O)[C@H](CC(=O)O)NC(=O)[C@H](CO)NC(=O)[C@@H](NC(=O)[C@H](Cc1ccccc1)NC(=O)[C@@H](NC(=O)CNC(=O)[C@@H](N)CCC(=O)O)[C@@H](C)O)[C@@H](C)CC)C(=O)N[C@@H](C)C(=O)N[C@@H](CCSC)C(=O)N[C@@H](CC(=O)O)C(=O)N[C@@H](CCCCN)C(=O)N[C@H](C(=O)N[C@@H](CCCCNC(=O)CCCCCCCCCCCCCCC(=O)O)C(=O)N[C@@H](CCC(N)=O)C(=O)N[C@@H](CCC(N)=O)C(=O)N[C@@H](CC(=O)O)C(=O)N[C@@H](Cc1ccccc1)C(=O)N[C@H](C(=O)N[C@@H](CC(N)=O)C(=O)N[C@@H](Cc1c[nH]c2ccccc12)C(=O)N[C@@H](CC(C)C)C(=O)N[C@@H](CC(C)C)C(=O)N[C@@H](C)C(=O)N[C@@H](CCC(N)=O)C(=O)N[C@@H](CCCCN)C(=O)NCC(=O)O)C(C)C)[C@@H](C)CC
Human GIP receptor [1]
  cAMP agonism Emax: 4.2
  cAMP antagonism: 9 nM
  cAMP antagonism % inhib: 82%
  cAMP antagonism log: -8.1 log M
Human GIP receptor [2]
  cAMP agonism % Emax: 0%
  cAMP antagonism: 11.9 nM
  cAMP antagonism % inhib: 93%
  cAMP antagonism pIC50: 7.9
